Reference: PMC7176292

Assays:
[1] = biological target: human μ-opioid receptor (μOR) M153F, with HA signal sequence at the N terminus and LgBiT at the C terminus (modified pfastbac1) (human) (UniProt P35372); experiment: split reporter (BiFC, NanoBiT); NanoBiT on Sf9 membranes co-expressing μOR-LgBiT, Gαi1, Gβ1-SmBiT and Gγ2, in PBS pH 7.4; dose-response of DAMGO, 15 min at room temperature, luminescence; normalized to DAMGO
[2] = biological target: human μ-opioid receptor (μOR) M153I, with HA signal sequence at the N terminus and LgBiT at the C terminus (modified pfastbac1) (human) (UniProt P35372); experiment: as above
[3] = biological target: human μ-opioid receptor (μOR) M153L, with HA signal sequence at the N terminus and LgBiT at the C terminus (modified pfastbac1) (human) (UniProt P35372); experiment: as above
[4] = biological target: human μ-opioid receptor (μOR) M153A, with HA signal sequence at the N terminus and LgBiT at the C terminus (modified pfastbac1) (human) (UniProt P35372); experiment: split reporter (BiFC, NanoBiT); NanoBiT on Sf9 membranes co-expressing μOR-LgBiT, Gαi1, Gβ1-SmBiT and Gγ2, in PBS pH 7.4; dose-response of fentanyl, 15 min at room temperature, luminescence; normalized to DAMGO
[5] = biological target: human μ-opioid receptor (μOR) M153F, with HA signal sequence at the N terminus and LgBiT at the C terminus (modified pfastbac1) (human) (UniProt P35372); experiment: as above
[6] = biological target: human μ-opioid receptor (μOR) M153I, with HA signal sequence at the N terminus and LgBiT at the C terminus (modified pfastbac1) (human) (UniProt P35372); experiment: as above
[7] = biological target: human μ-opioid receptor (μOR) M153L, with HA signal sequence at the N terminus and LgBiT at the C terminus (modified pfastbac1) (human) (UniProt P35372); experiment: as above
[8] = biological target: human μ-opioid receptor (μOR) M153V, with HA signal sequence at the N terminus and LgBiT at the C terminus (modified pfastbac1) (human) (UniProt P35372); experiment: as above

Sequence of Gi protein complex (Gαi1, Gβ1 with SmBiT at the C terminus, Gγ2) (P63096 whole entry): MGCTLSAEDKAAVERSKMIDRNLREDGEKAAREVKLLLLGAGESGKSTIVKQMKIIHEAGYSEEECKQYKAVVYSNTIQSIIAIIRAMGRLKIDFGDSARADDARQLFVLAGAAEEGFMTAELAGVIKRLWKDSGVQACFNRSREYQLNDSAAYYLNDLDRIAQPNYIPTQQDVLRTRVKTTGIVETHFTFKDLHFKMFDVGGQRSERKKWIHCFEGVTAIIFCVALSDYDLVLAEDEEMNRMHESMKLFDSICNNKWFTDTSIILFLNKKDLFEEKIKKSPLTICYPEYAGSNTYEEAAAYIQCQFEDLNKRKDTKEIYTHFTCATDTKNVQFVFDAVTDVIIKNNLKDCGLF
Sequence of Gi protein complex (Gαi1, Gβ1 with SmBiT at the C terminus, Gγ2) (P62873 whole entry): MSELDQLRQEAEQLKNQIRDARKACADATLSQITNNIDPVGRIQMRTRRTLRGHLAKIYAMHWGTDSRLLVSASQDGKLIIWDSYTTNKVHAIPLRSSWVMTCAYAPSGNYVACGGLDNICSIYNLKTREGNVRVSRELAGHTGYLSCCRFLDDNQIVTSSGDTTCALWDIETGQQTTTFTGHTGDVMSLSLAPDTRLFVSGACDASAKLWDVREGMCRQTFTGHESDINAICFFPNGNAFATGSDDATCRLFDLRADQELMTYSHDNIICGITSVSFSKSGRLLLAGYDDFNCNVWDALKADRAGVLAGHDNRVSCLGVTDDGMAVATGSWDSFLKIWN
Sequence of Gi protein complex (Gαi1, Gβ1 with SmBiT at the C terminus, Gγ2) (P59768 whole entry): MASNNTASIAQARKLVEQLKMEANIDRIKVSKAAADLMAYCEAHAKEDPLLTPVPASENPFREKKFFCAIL

Gi protein complex (Gαi1, Gβ1 with SmBiT at the C terminus, Gγ2) (from UniProt P63096 1-354; P62873 1-340; P59768 1-71)
maximal Gi coupling (normalized to DAMGO) [1]: 100%
maximal Gi coupling (normalized to DAMGO) [2]: 100%
maximal Gi coupling (normalized to DAMGO) [3]: 100%
maximal Gi coupling (normalized to DAMGO) [4]: < 55%
maximal Gi coupling (normalized to DAMGO) [5]: < 55%
maximal Gi coupling (normalized to DAMGO) [6]: < 55%
maximal Gi coupling (normalized to DAMGO) [7]: < 55%
maximal Gi coupling (normalized to DAMGO) [8]: < 55%
